Experimental data from article PMC6677171 (Life Science Alliance, 2019).

B1: Mis19^1–44 peptide (peptide, UniProt O42995 1-44, looked up)
peptide: MDLMPLEKARAIEIAFDNVFHNTKIPDNLQQFDAILKRLERRRF
notes: Mis19 (Eic1), S. pombe, residues 1–44 (motifs 1 and 2); also called wild-type peptide
B2: Mis19 (S. pombe), full length (natural protein, UniProt O42995 1-112, looked up)
chain: MDLMPLEKARAIEIAFDNVFHNTKIPDNLQQFDAILKRLERRRFIPTENQKPRVYETELLVLRFREFGVKDNHNHPINLHSLRSKSLIRAQGKKLDLHNRVFLRRNVRAVKM
notes: Mis19 (also known as Eic1), S. pombe; only handled in complex; also called Eic1; source: insect cells (MultiBac), co-expressed with Mis16 and Mis18, co-purified
B3: Mis19C (Mis19 residues 52–112) (domain or fragment, S. pombe, UniProt O42995 52-112, looked up)
chain: PRVYETELLVLRFREFGVKDNHNHPINLHSLRSKSLIRAQGKKLDLHNRVFLRRNVRAVKM
notes: holds sites A, B and C; Cannot be expressed and purified without Mis16; also called Mis19^52-C; N-terminal truncation of Mis19; source: insect cells, co-expressed with Mis16
B4: Mis19 C-terminal peptide (residues 97–112) F102S (peptide, UniProt O42995 97-112, looked up)
peptide: LHNRVSLRRNVRAVKM
notes: the text ties the value to the F102S (eic1-1) mutant; also called F102 mutant; eic1-1 mutation
B5: Mis18 (S. pombe) (natural protein, UniProt Q9P802 1-194, looked up)
chain: MSQTETSHSGYIDFKKESQPSVFQCKKCFQIVGDSNAWVISHREYLSFTLSDAVENSVRVEDTFKRSDDGLCVYSELSCTRCNEVIGKVYNSTPIYLDDIRDMYTFSMDKLQAYQLGNKTVNPEGLTRYQVDLEMREDIIKLKSFCLSLYEKFELHDETLRSVKETISSLKKPKIEGKEGKKEKARTYSKRTRK
notes: Mis18, S. pombe, N-terminal YIPPEE domain and C-terminal coiled coil; 'Full-length' is said of the co-expressed complex; source: insect cells; co-expressed with Mis16 and Mis19 and co-purified, or purified alone for the pull-down

What was measured:
Mis18 (S. pombe) = molecular target: B5; assay: SEC; competition: preformed Mis16–Mis18–Mis19 complex challenged with peptides from the Mis19 N terminus; dissociation seen as separate Mis16–19 and Mis18 peaks; conditions: both partners purified
[1] = molecular target: T1, Mis16 (S. pombe), full length, affinity tag removed (S. pombe, UniProt O94244 1-430); assay: AUC; sedimentation velocity of the purified co-expressed Mis16–Mis18–Mis19 complex at two concentrations; 150 mM NaCl, 25 mM Tris–HCl pH 8.0, 2 mM TCEP; 50,000 rpm, 4°C; c(s) in SEDFIT; conditions: both partners purified
T1 construct: Mis16, S. pombe, WD40-repeat protein, homologue of human RbAp46/48; codon-optimised gene; Used where the methods or text say the tag was removed (crystals, MALLS of the untagged complex) and, by the general purification protocol, for ITC and AUC; source: insect cells (baculovirus made in Sf21, expressed in Hi5), purified (Strep-Tactin, anion exchange, TEV cleavage, SEC); not shown: double …

[2] = molecular target: T1, Mis16 (S. pombe), full length, affinity …; assay: SEC-MALS; 200 μg of purified Mis16–Mis19C complex on Superose 6 Increase 10/300 coupled to a Wyatt Dawn 8+ MALS system; conditions: both partners purified
[3] = molecular target: T1, Mis16 (S. pombe), full length, affinity …; assay: ITC; iTC200, 30°C; 50 mM Tris pH 7.5, 100 mM NaCl, 4% glycerol, 0.5 TCEP; 26 μM protein in the cell, 260 μM peptide injected; conditions: both partners purified
[4] = molecular target: T1, Mis16 (S. pombe), full length, affinity …; assay: ITC; competition: Mis16 preincubated with one peptide (H4α1 or Mis19α2) before titration with the second; apparent KD; conditions: both partners purified
[5] = molecular target: the molecule itself; assay: AUC; sedimentation velocity of the purified co-expressed Mis16–Mis18–Mis19 complex at two concentrations; 150 mM NaCl, 25 mM Tris–HCl pH 8.0, 2 mM TCEP; 50,000 rpm, 4°C; c(s) in SEDFIT

B1: binds (Mis18 (S. pombe)).

B2: binds [1].

In the case of B3, the “stoichiometry N” value [2] is reported as 1.

For LHNRVFLRRNVRAVKM (peptide, UniProt O42995 97-112, looked up, also called Mis19 site C peptide) [Mis19α2 peptide (Mis19 residues 97–112)], the Kd [3] was 8 nM and the “apparent KD with Mis16 preincubated with H4α1” value [4] was 2500 nM.

For B4, the Kd [3] was ~301 nM.

In the case of B5, the “stoichiometry N” value [5] is reported as 4.
